The text below walks through data of patent CN111635459A (BEIJING GUANGWEI BIOTECHNOLOGY CO LTD, dated 2020).

The target in assay [1] is T1, 人CD47抗原蛋白 (human, UniProt Q08722 19-139, limits assumed).
T1 construct: The construct is not described; also called CD47蛋白
In words: SPR (Biacore 3000), antibody captured by anti-human Fc on CM5 chip, CD47 antigen 200-3.125 nM as analyte. Background: In SPR one partner is held on a chip, and binding of the other changes the refractive index at the surface.

Assay [2] concerns the target T2, U937细胞表面的CD47 (human, UniProt Q08722 19-323).
T2 construct: whole, on cells; also called CD47 on U937 cells
Description: flow cytometry on U937 cells, blocking of FITC-SIRPα (100 ng/mL) binding to cell-surface CD47; antibody 0.03-50 μg/mL. A general note: In flow cytometry, cells or beads pass a laser one at a time.

T1 sequence (Q08722 19-139 limits assumed): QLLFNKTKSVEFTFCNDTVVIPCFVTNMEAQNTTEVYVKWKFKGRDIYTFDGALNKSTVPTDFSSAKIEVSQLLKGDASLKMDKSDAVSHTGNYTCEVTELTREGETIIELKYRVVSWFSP
T2 sequence (Q08722 19-323): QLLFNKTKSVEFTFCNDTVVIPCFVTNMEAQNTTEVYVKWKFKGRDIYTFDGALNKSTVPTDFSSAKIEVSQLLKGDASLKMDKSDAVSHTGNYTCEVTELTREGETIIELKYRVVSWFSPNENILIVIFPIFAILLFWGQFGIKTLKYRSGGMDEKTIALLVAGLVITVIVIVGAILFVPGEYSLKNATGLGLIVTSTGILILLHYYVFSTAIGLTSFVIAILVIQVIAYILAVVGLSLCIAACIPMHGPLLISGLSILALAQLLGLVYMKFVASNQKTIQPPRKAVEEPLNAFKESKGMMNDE

B1: 对照抗体W3452-1.164.16-z11 (antibody, V domains shown)
VH: QVQLQESGPGLVKPSETLSLTCTVSGFSLTNYHVYWIRQPPGKGLEWIGVMWNHGDTSYNSPLKSRVTISVDTSKSQFSLKLSSVTAADTAVYYCARGGYVPDYWGQGTMVTVSS
VL: DIVMTQSPLSLPVTPGEPASISCRSSQSLVHSNAKTYLHWYLQKPGQSPQLLIYRVSNRFSGVPDRFSGSGSGTDFTLKISRVEAEDVGVYYCLQTTHFPYTFGQGTKLEIK
A word on the Kd: it is the constant that tells how readily two partners part at equilibrium. A higher Kd goes with a looser complex. As usually defined, the koff is a measure of how fast the partners let go of each other. For orientation: kon means the second-order rate constant of association. In general, IC50 refers to the point on the concentration scale where inhibition reaches its midpoint. Low readings indicate inhibition by little substance, high ones a need for much substance. As to B1, in assay [1], the Kd came out at 0.0934 nM, the koff worked out at 3.84e-05 s⁻¹ and the kon is 411000 M⁻¹ s⁻¹. The same molecule registered an IC50 in assay [2] of 1.37 µg/mL.
